Patent US20120052569A1

Target: monoclonal 2H5 antibody produced by rat-mouse hybridoma 2H5 (FERM BP-11245)
Assay: competitive elution of eTEV-GFPUV from 2H5 sepharose, peptide 0 to 1000 µg/mL, SDS gel

peptide concentration giving complete competitive elution: 30 µg/mL
Binder: RENLYFQGKDG [eTEV peptide (free peptide used as competitive eluent)]
